{"source": "paper doi:10.1101/2021.06.21.449279", "key": {"[1]": {"target": "CwlDΔ25-His6 (C. difficile)", "experiment": "pull-down"}, "[2]": {"target": "CwlDΔ25-His6 (C. difficile)", "experiment": "SEC"}, "[3]": {"target": "GerSΔ22 (untagged) (C. difficile)", "experiment": "crystal structure"}, "[4]": {"target": "CwlD R169D-His6 (C. difficile)", "experiment": "pull-down"}, "[5]": {"target": "CwlD R169Q-His6 (C. difficile)", "experiment": "pull-down"}, "[6]": {"target": "CwlD_(E199A)-His6 (C. difficile)", "experiment": "SEC"}, "[7]": {"target": "CwlD_(E65A)-His6 (C. difficile)", "experiment": "SEC"}, "[8]": {"target": "CwlD_(H49A)-His6 (C. difficile)", "experiment": "SEC"}, "[9]": {"target": "CwlD_(E199A)-FLAG (C. difficile)", "experiment": "co-IP"}, "[10]": {"target": "FLAG-tagged CwlD_(H49A) (C. difficile)", "experiment": "co-IP"}, "[11]": {"target": "FLAG-tagged CwlD_(R169D) (C. difficile)", "experiment": "co-IP"}, "[12]": {"target": "GerSΔ22-His6 (C. difficile)", "experiment": "SEC"}}, "data": [{"substance": "GerS D106R (untagged) (domain or fragment)", "values": [{"measurement": "reduction of GerS co-purification against the wild-type complex", "setting": "[1]", "value": 90, "unit": "%"}]}, {"substance": "CwlDΔ25-His6 (domain or fragment)", "values": [{"measurement": "stoichiometry N", "setting": "[2]", "value": 2}]}, {"substance": "GerSΔ22 (untagged) (domain or fragment)", "values": [{"measurement": "stoichiometry N", "setting": "[3]", "value": 2}, {"measurement": "reduction of GerS co-purification against the wild-type complex", "setting": "[4]", "value": 90, "unit": "%"}, {"measurement": "reduction of GerS co-purification against the wild-type complex", "setting": "[5]", "value": 90, "unit": "%"}, {"measurement": "stoichiometry N", "setting": "[6]", "value": 1}, {"measurement": "stoichiometry N", "setting": "[7]", "value": 1}, {"measurement": "stoichiometry N", "setting": "[8]", "value": 1}, {"measurement": "stoichiometry N", "setting": "[2]", "value": 1}]}, {"substance": "cleaved form of GerS (untagged, in sporulating C. difficile) (natural protein)", "values": [{"measurement": "decrease of the interaction against the wild-type CwlD:GerS complex", "setting": "[9]", "value": 40, "unit": "%"}, {"measurement": "fold reduction of GerS pulled down against wild-type FLAG-tagged CwlD", "setting": "[10]", "value": 5, "unit": "fold"}, {"measurement": "fold reduction of GerS pulled down against wild-type FLAG-tagged CwlD", "setting": "[11]", "value": 5, "unit": "fold"}]}, {"substance": "GerSΔ22-His6 (domain or fragment)", "values": [{"measurement": "stoichiometry N", "setting": "[12]", "value": 2}]}, {"substance": "GerS D106A (untagged) (domain or fragment)", "values": [{"measurement": "reduction of GerS co-purification against the wild-type complex", "setting": "[1]", "value": 90, "unit": "%"}]}]}
